Source: the DeepSol protein solubility set

Experiment: soluble on expression in E. coli; label from the status in PepcDB or PDB records

Row | Sequence | soluble on expression in E. coli
1 | MILTEQEKAEVEANRRRYEQHKALGQQQAPKALPPPTPRDGAPIAPESIIHRETVPGGWYYVTKLGRGEAVRIINTSGTSCVSIQAWNALDPSERLNHADTIKVQWAASLRKGRVILSDMGRALLSIIEDTSGAHDTMVGGSNAATNAERYGVGSFRNARDNFVLAAGKLGLDRRDVHPSIALFAPVAVDSQGRFEWHGERRHKGDFVDLRAELDLLIAVSNCPHPLDPSPSYAPGDIELIRYQAPQPASDDLCRTVSLEAKRAFENNAFYLAGAAGRALEHHHHHH | soluble
2 | MSSARRCLFGRPTPEQRSRTRIWLEDAVKRMRQEESQKWGFDFELETPLPSSAGFVYEVIPENCVPEFYRTKVLTVRTTCSSLDISSTTLTPLSSPSTSDKEEPSLMDPNSSFEDEEEPKKWQFREPPTPRKTPTKRQQKMTDFMAVSRKKNSLSPNKLSPVNVIFTPKSRRPTIRTRSSCSPY | not soluble
3 | MYKWLLSVLLVLMSTVVHAADCFDLAGRDYKIDPDLLRAISWKESRNRANAVGINPVTGYGSGLMQVDSQHFNELARYGIKPEQLVSDPCLNIYTGAYYLAIAFRKWGVSWTAVGAYNAGFKKTPLQDARRLDYATDVHRIWIAIKQSKTRQTPAR | not soluble
4 | MTELARLKFYATQPHPCSYLPEEQATTLFLDPSQPMDTQLYASLSEVGFRRSGDHLYRPHCQHCTACIAARIPVADFSPNRQQRRILKRNAELQVIRKRPSFNEEYYDLYRRYIEQRHADGDMYPPSRDQFATFLVRDLPFCCFFEFRLHGRLLAIAVTDVLPNGLSAVYTFYDPDEEQRSLGRYAILWQIAETERLGLQAVYLGYWIKNCRKMNYKTQYRPIELFVNQRWVALTLEHHHHHH | not soluble
5 | MSLAPAQRAFSDWQVTCNNQNFCVARNTGDHNGLVMTLSRSAGAHTDAVLRIERGGLKSPDASEGEIAPRLLLDGEPLALSGDKWRISPWLLVTDDTATITAFLQMIQEGKAITLRDGNQTISLSDLKAALLFIDAQQKRVGSETAWIKKGDEPPLSVPPAPALKEVVVVNPTPTPLSLEERNDLLDYGNWRMNGLRCSLDPLRREVNVTALTDDKALMMISCEAGAYNTIDLAWIVSRKKPLASRPVRLRLPFNNGQETNELELMNATFDEKSRELVTLAKGRGLSDCGIQARWRFDGQRFRLVRYAAEPTCDNWHGPDAWPTLWITREGHHHHHH | soluble
6 | MAGKVKWVTDIEKSVLINNFEKRGWIQVTDSEDWNFYWMSIQTIRTVFSVDTGYRLTDDQMVNHFPNHYELTRKDLMIKNIKRYRRELEKENSALAEKDDSGKYIYLDFVPVTFMLPADYNLFVEEFRKSPSSTWIMKPCGKAQGKGIFLINKLSQIKKWSRDSRTSTFVAANSGKEAYVISLYIDNPLLIGGKKFDLRLYVLVTTYRPLKCYMWVQESSE | not soluble
7 | MKQPFERILREICFMVKVEGRKVLRDFGITPAQFDILQKIYFEGPKRPGELSVLLGVAKSTVTGLVKRLEADGYLTRTPDPADRRAYFLVITRKGEEVIEKVIERRENFIEKITSDLGKEKSSKILDYLKELKGVMERNFSKQ | soluble
8 | MHIDLRQLRHFIALHEHRSFVAAALAVNLSQSAFSRSIQALEHSAGCRLVDRAAKDLRPTKQGLIVLEHARRLVSGAHNLANEIALFNGLEAGELRFGAGPAPATWLVPRAVGRFNVRYPKARVSFQVEHWQALNRRLQAEEFEFFVADTRHFEADPQYRTSRLRPRRWHFCCREGHPLAARESVSAEELLSFPLATNISPPNIRKVLVDLSGRPDFRPAIECENGHSLLGVVLASDAIGISSGLGDLAPPGQGGLRPLRVRELPDDLDELHTRYGIVSRAGYSLSPLAEAMIDELKRVDDAT | not soluble
9 | MSVVGEERKRTILEKVEFKGKVKVSELAREFAVSTETIRRYLEELDREKKLKKVYGGAVQLPGAGVEAPMLEREMLHIEEKKRIGYKAATFVEDGDVIAIDDGSTPLQMVPYLVHRKNLTIVTSSFPVATQLISSINKKMFHGEVLFIGGKVSPKHSRVSGSISQQVIQQFHFHKAFVSIDGLLPSFGVSSFELEKAKLSEAMMKLAEKTYILCDHTKVGVKGNYRIAAISRIQHVICDKKMPYSFEEELMKHNIQWTVCLEHHHHHH | soluble
10 | MKTIIRYFSFVMGLMLTLPSFAKEKISIMLDWYVNPDHAAIIVAQQKGFFEKNNLEVEIIEPADPALPPKLAAAEKVDLAVSYQPQLYQQVAEGLPLVRVGSLISNPLNSVVVLKKSNLKSLADLKGKKVGYSVSGFEDGLLDTMLHSIGLSNKDVELVNVNWSLSPSLLTGQVDAVIGAFRNFELNQLALEKQEGIAFFPEQYGVPAYDELILVANKNSVTDKKTSAFLTALEQATSYLQAHPNEAWQAFVSYKPNELNTPLNQLAWKDTLPFLANKPRQLDAKRYQQMAEFMQQKGLIPKALALKEYAVEIELEHHHHHH | soluble
11 | MIKISTRFDAGSVVVKDLTDPSNIRLALRPDNASDFAQWFYFRLQGAAYQNCIMHFENAAEAAYPKGWEGYQACASYDRRNWFRVPTSYENGVLTVNHTPLSNSVYYAYFEPYSEEQHLNLLGDAQGSGLCRIDDLGSTVQGRDINLLTIGNQVESDLKIWITARQHPGETMAEWFIEGLLGRLLDPQDPTARALLDRATFYIVPNMNPDGSALGNLRTNAAGANLNREWENPTVEKSPEVFFVREKMLETGVDLFLDIHGDEGLPFVFVAGTEGVPNYNPRIAALEAQFKNALLNASPDFQDEYGYEKDAPGEANMTLATNWVGNRFNCLAYTLEMPFKDNANLPDDDFGWNGQRSLRLGEAALSAILNVIGDLR | not soluble
12 | AAGKDFVVKGKDGWAIIAGYHWFDEWGRDTFISLEGLLLVDKQYDIAKEIILKYLNLEKRGMLPNNFISYNGEPVYRGVDISLWAINAIYKTYIYSRDKNFIRKVVDKVLDIIDWYSKGNGVIYNVDNLIFHKGAPRTWMDASYDSRIVTPREGAAVEINALWYNALRVTEFLLNELGEKAEYLSEKAESVKKSFAEKFISQDGLYDYINWDNIPDKSIRPNQIFSISLPFPIIDDKSIASKILTLIESKLLRQYGLSSLSREDPNYKPVYKGDRRSRESLPQWTHMALVTRRLC | not soluble
13 | EQKVYEQKTRQQVMLSAYQQKEKDIESILDMQKQNSKQRHDINNVLILISELIQDEKYSKALEVLDKYRTGYNNINVTEIVSNNIVLNYLLNRKINQCREAGIDMACYVLWNIAGVDDMDLYILLENLCDNAIEAAGQCEKPSIKLQIAEDNASMYIDIGNTTSGNVLNNNPHMNTTKKDKNMHGFGIMNIRDIIDKYNGTINYEQQGDNYLMCRCTLEKVCQ | not soluble
14 | MSLNKTFTVEKANRFIAENKHLVNTQYKPEEHFSAEIGWINDPNGFVYFRGEYHLFYQFYPYDSVWGPMHWGHAKSKDLVTWEHLPVALAPDQDYDRNGCFSGSAIVKDDRLWLMYTGHIEEKTGVRQVQNMAFSDDGIHFEKISQNPVATGSDLPDELIAADFRDPKLFEKDGRYYSVVAAKHKNNVGCIVLLGSDNLVEWQFESIFLKGVEHQGFMWECPDYFELDGKDCLIMSPMRYQREGDSYHNINSSLLFTGKVDWGEKCFIPESVQEIDHGQDFYAPQTLLDDQNRRILIAWMQTWGRTLPTHDQEHKWACAMTLPRILRLEDGKLRQFPVKKGQYQIQIDKDCHYHLGNDTDYLEFGYDSNVQQVYIDRSHLIQKILGEEEQDTSRRYVDIEAKELEVVLDKNSIEIFVNQGEASLTATYYLTVPAELSRIDEGHHHHHH | soluble
15 | MIVFSDLDRSIIYSNKFLNADSKYANIEIYREKEISYISLDTINLIKQIQYYGMFIPTTTRTVEQFKRIEFNKYGIYFPWSITSNGGVILKDNEILKSWSEKIDKLKSNYEPIESMIHKFKDYLNVDGITNFKVAEDTFFYIVVDLSRFNLDSIKEYTNILESKNWKFYVSGRKIYFIPKEISKENAIKYLTKELGIEYFYAVGDSIMDYGMLNISNKSYVLKHGDINKNEIENSFISSSFNGMSGTEEILSNILDENCLLNI | not soluble
16 | MAHHHHHHMSSASIVALSLSLSFSLGLLRSLGSARHIRYGHPHTNTSAYGGRHPRMQVMAAAARTYRHIVARELSTNFRAVASIVEAPFPTVLHPKAILVKNKYLGVNASDINFTAGIYQPDVRPPFACGFEAVGEVVDVGSGVKDLKAGAAVVTQSYGAFAEYQVVARRHAKPIPRVAREYLPLDLSATTASIALEHVLKPQPGERAVVTAAAGGTGQFAVQLLKHVYGCSVVGTCSSPSKEVFLTNTLKCDGVVNYKAEGGDTAAAFLRCYPRGVNIAYESVGGDLLEAVIQSLAPRGRILSLGCVSTYQCGSIEAACPSRKPLPLQLLAKSASLSTFFLPHFAKYGQLHFDRLCALHEQGLVQCCIDPTTFEGLEGVYDAIDWMFEQKNCGKVMVEL | not soluble
